Columns and labels:
[1] = target: TZSV N protein (recombinant, expressed from pET30a-TZSV in E. coli BL21 (DE3)) (tomato zonate spot virus); assay: indirect ELISA, negative of the row of FL484-22
[2] = target: TZSV N protein (recombinant, expressed from pET30a-TZSV in E. coli BL21 (DE3)) (tomato zonate spot virus); assay: indirect ELISA, negative of the row of FL484-34
[3] = target: TZSV N protein (recombinant, expressed from pET30a-TZSV in E. coli BL21 (DE3)) (tomato zonate spot virus); assay: indirect ELISA, negative control of the row of M210046
[4] = target: TZSV N protein (recombinant, expressed from pET30a-TZSV in E. coli BL21 (DE3)) (tomato zonate spot virus); assay: indirect ELISA, negative of the row of FL484-19
[5] = target: TZSV N protein (recombinant, expressed from pET30a-TZSV in E. coli BL21 (DE3)) (tomato zonate spot virus); assay: indirect ELISA, negative of the row of FL484-15
[6] = target: TZSV N protein (recombinant, expressed from pET30a-TZSV in E. coli BL21 (DE3)) (tomato zonate spot virus); assay: indirect ELISA, negative of the row of FL484-24
[7] = target: TZSV N protein (recombinant, expressed from pET30a-TZSV in E. coli BL21 (DE3)) (tomato zonate spot virus); assay: indirect ELISA, negative of the row of FL484-33
[8] = target: TZSV N protein (recombinant, expressed from pET30a-TZSV in E. coli BL21 (DE3)) (tomato zonate spot virus); assay: indirect ELISA, negative of the row of FL484-4
[9] = target: TZSV N protein (recombinant, expressed from pET30a-TZSV in E. coli BL21 (DE3)) (tomato zonate spot virus); assay: indirect ELISA, negative of the row of FL484-1
[10] = target: TZSV N protein (recombinant, expressed from pET30a-TZSV in E. coli BL21 (DE3)) (tomato zonate spot virus); assay: indirect ELISA, negative control of the row of M210048
[11] = target: TZSV N protein (recombinant, expressed from pET30a-TZSV in E. coli BL21 (DE3)) (tomato zonate spot virus); assay: indirect ELISA, negative of the row of FL484-23
[12] = target: TZSV N protein (recombinant, expressed from pET30a-TZSV in E. coli BL21 (DE3)) (tomato zonate spot virus); assay: indirect ELISA, negative of the row of FL484-17
[13] = target: TZSV N protein (recombinant, expressed from pET30a-TZSV in E. coli BL21 (DE3)) (tomato zonate spot virus); assay: indirect ELISA, negative of the row of FL484-12
[14] = target: TZSV N protein (recombinant, expressed from pET30a-TZSV in E. coli BL21 (DE3)) (tomato zonate spot virus); assay: indirect ELISA, negative of the row of FL484-9
[15] = target: TZSV N protein (recombinant, expressed from pET30a-TZSV in E. coli BL21 (DE3)) (tomato zonate spot virus); assay: indirect ELISA, negative of the row of FL484-26
[16] = target: TZSV N protein (recombinant, expressed from pET30a-TZSV in E. coli BL21 (DE3)) (tomato zonate spot virus); assay: indirect ELISA, negative of the row of FL484-8
[17] = target: TZSV N protein (recombinant, expressed from pET30a-TZSV in E. coli BL21 (DE3)) (tomato zonate spot virus); assay: indirect ELISA, negative of the row of FL484-3
[18] = target: TZSV N protein (recombinant, expressed from pET30a-TZSV in E. coli BL21 (DE3)) (tomato zonate spot virus); assay: indirect ELISA, negative of the row of FL484-32
[19] = target: TZSV N protein (recombinant, expressed from pET30a-TZSV in E. coli BL21 (DE3)) (tomato zonate spot virus); assay: indirect ELISA, negative of the row of FL484-31
[20] = target: TZSV N protein (recombinant, expressed from pET30a-TZSV in E. coli BL21 (DE3)) (tomato zonate spot virus); assay: indirect ELISA, negative of the row of FL484-16
[21] = target: TZSV N protein (recombinant, expressed from pET30a-TZSV in E. coli BL21 (DE3)) (tomato zonate spot virus); assay: indirect ELISA, negative control of the row of M210047
[22] = target: TZSV N protein (recombinant, expressed from pET30a-TZSV in E. coli BL21 (DE3)) (tomato zonate spot virus); assay: indirect ELISA, negative of the row of FL484-27
[23] = target: TZSV N protein (recombinant, expressed from pET30a-TZSV in E. coli BL21 (DE3)) (tomato zonate spot virus); assay: indirect ELISA, negative of the row of FL484-7
[24] = target: TZSV N protein (recombinant, expressed from pET30a-TZSV in E. coli BL21 (DE3)) (tomato zonate spot virus); assay: indirect ELISA, negative of the row of FL484-10
[25] = target: TZSV N protein (recombinant, expressed from pET30a-TZSV in E. coli BL21 (DE3)) (tomato zonate spot virus); assay: indirect ELISA, negative of the row of FL484-6
[26] = target: TZSV N protein (recombinant, expressed from pET30a-TZSV in E. coli BL21 (DE3)) (tomato zonate spot virus); assay: indirect ELISA, negative of the row of FL484-28
[27] = target: TZSV N protein (recombinant, expressed from pET30a-TZSV in E. coli BL21 (DE3)) (tomato zonate spot virus); assay: indirect ELISA, negative of the row of FL484-13
[28] = target: TZSV N protein (recombinant, expressed from pET30a-TZSV in E. coli BL21 (DE3)) (tomato zonate spot virus); assay: indirect ELISA, negative of the row of FL484-2
[29] = target: TZSV N protein (recombinant, expressed from pET30a-TZSV in E. coli BL21 (DE3)) (tomato zonate spot virus); assay: indirect ELISA, negative of the row of FL484-29
[30] = target: TZSV N protein (recombinant, expressed from pET30a-TZSV in E. coli BL21 (DE3)) (tomato zonate spot virus); assay: indirect ELISA, negative of the row of FL484-35
[31] = target: TZSV N protein (recombinant, expressed from pET30a-TZSV in E. coli BL21 (DE3)) (tomato zonate spot virus); assay: indirect ELISA, negative of the row of FL484-14
[32] = target: TZSV N protein (recombinant, expressed from pET30a-TZSV in E. coli BL21 (DE3)) (tomato zonate spot virus); assay: indirect ELISA, negative of the row of FL484-11
[33] = target: TZSV N protein (recombinant, expressed from pET30a-TZSV in E. coli BL21 (DE3)) (tomato zonate spot virus); assay: indirect ELISA, negative of the row of FL484-21
[34] = target: TZSV N protein (recombinant, expressed from pET30a-TZSV in E. coli BL21 (DE3)) (tomato zonate spot virus); assay: indirect ELISA, negative of the row of FL484-20
[35] = target: TZSV N protein (recombinant, expressed from pET30a-TZSV in E. coli BL21 (DE3)) (tomato zonate spot virus); assay: indirect ELISA, negative of the row of FL484-30
[36] = target: TZSV N protein (recombinant, expressed from pET30a-TZSV in E. coli BL21 (DE3)) (tomato zonate spot virus); assay: indirect ELISA, negative of the row of FL484-5
[37] = target: TZSV N protein (recombinant, expressed from pET30a-TZSV in E. coli BL21 (DE3)) (tomato zonate spot virus); assay: indirect ELISA, negative of the row of FL484-25
[38] = target: TZSV N protein (recombinant, expressed from pET30a-TZSV in E. coli BL21 (DE3)) (tomato zonate spot virus); assay: indirect ELISA, negative control of the row of M210045
[39] = target: TZSV N protein (recombinant, expressed from pET30a-TZSV in E. coli BL21 (DE3)) (tomato zonate spot virus); assay: indirect ELISA, negative of the row of FL484-18

## negative control (mouse serum before immunization)
[1]
  OD450: 0.163 OD
[2]
  OD450: 0.193 OD
[3]
  OD450: 0.146 OD
[4]
  OD450: 0.164 OD
[5]
  OD450: 0.187 OD
[6]
  OD450: 0.203 OD
[7]
  OD450: 0.221 OD
[8]
  OD450: 0.23 OD
[9]
  OD450: 0.169 OD
[10]
  OD450: 0.125 OD
[11]
  OD450: 0.232 OD
[12]
  OD450: 0.186 OD
[13]
  OD450: 0.157 OD
[14]
  OD450: 0.171 OD
[15]
  OD450: 0.161 OD
[16]
  OD450: 0.196 OD
[17]
  OD450: 0.14 OD
[18]
  OD450: 0.194 OD
[19]
  OD450: 0.172 OD
[20]
  OD450: 0.209 OD
[21]
  OD450: 0.137 OD
[22]
  OD450: 0.197 OD
[23]
  OD450: 0.24 OD
[24]
  OD450: 0.158 OD
[25]
  OD450: 0.24 OD
[26]
  OD450: 0.229 OD
[27]
  OD450: 0.155 OD
[28]
  OD450: 0.208 OD
[29]
  OD450: 0.215 OD
[30]
  OD450: 0.19 OD
[31]
  OD450: 0.19 OD
[32]
  OD450: 0.052 OD
[33]
  OD450: 0.18 OD
[34]
  OD450: 0.236 OD
[35]
  OD450: 0.265 OD
[36]
  OD450: 0.237 OD
[37]
  OD450: 0.234 OD
[38]
  OD450: 0.137 OD
[39]
  OD450: 0.179 OD

Reference: US20230160883A1
